Data taken from paper PMC12737591.

Biological target: recombinant prefusion F protein of RSV (rpF5), ectodomain fused with a T4 fibritin foldon trimerization domain (respiratory syncytial virus, subgroup A2 | bacteriophage T4) (UniProt P03420)
Assay: SDS-PAGE under reducing and non-reducing conditions; 10% gel, Coomassie blue staining; band of approximately 195 kDa under non-reducing and approximately 65 kDa under reducing conditions

## recombinant prefusion F protein of RSV (rpF5), ectodomain fused with a T4 fibritin foldon trimerization domain (from UniProt P03420 26-513) (domain or fragment)
  stoichiometry N: 3
